Consider 84 variants from the RNAGym collection of RNA variant scans (doi:10.1093/molbev/msab373).

To fix the notation:
B1: Azoarcus group I ribozyme (parent)
chain: GUGCCUUGCGCCGGGAAACCACGCAAGGGAUGGUGUCAAAUUCGGCGAAACCUAAGCGCCCGCCCGGGCGUAUGGCAACGCCGAGCCAAGCUUCGGCGCCUGCGCCGAUGAAGGUGUAGAGACUAGACGGCACCCACCUAAGGCAAACGCUAUGGUGAAGGCAUAGUCCAGGGAGUGGCGAAAGUCACACAAACCGG

Variants of B1 are the subject of this data set. Briefly: reverse-splicing fitness (ratio to wild type); higher = more active; in vitro selection; Mg2+ level not given. In outline: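 An in vitro group I ribozyme library with randomized positions was T7-transcribed and gel-purified. In triplicate, 10 pmol RNA in EPPS pH 7.5 was reacted with 50 pmoles of a 30-nt RNA substrate for 1 h at 37 °C across several added MgCl2 levels (1–48 mM), then stopped with EDTA. Products were reverse transcribed from a substrate-complementary primer, PCR-amplified and sequenced (HiSeq 4000). Fitness is a variant's read proportion after selection over that before, normalised to wild type.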
For the variant C82G A111U A120C C150G C169G U176C, the reverse-splicing fitness stood at 0.00622. For the variant C82G A111U A120G A145C C150G C169G U176A, the reverse-splicing fitness amounted to 0.00853. For C82G A111U A120G A145C C150G C169G U176G the value was 0.00464. Under C82G A111U A120G A145C C150G C169G U176C stands 0.00745; under C82G A111U A120C U176C, 0.0303; under C82G A111U A120C U176A, 0.0172. Under C82G A111U A120C U176G stands 0.00814. For C82G A111U A120C C169A, the reverse-splicing fitness worked out at 0.00833.

On to C82G A111U A120C C169U, for which the reverse-splicing fitness was determined as 0.0134.

For C82G A111U A120C C169G, the reverse-splicing fitness came out at 0.00915.

Turning to C82G A111U A120C C150U C169U U176A, the reverse-splicing fitness is 0.0146. As for C82G A111U A120C C150U C169U U176C, the reverse-splicing fitness is 0.0139. Under C82G A111U A120C C150U C169U U176G stands 0.00768; under C82G A111U A120G A145C C150A, 0.00696; under C82G A111U A120G A145C C150G, 0.00659. C82G A111U A120G A145C C150U: the reverse-splicing fitness stood at 0.00849. For C82G A111U A120G A145C C169A the value was 0.00794; for C82G A111U A120G A145C C169G, 0.0125.

On to C82G A111U A120G A145C C169U, for which the reverse-splicing fitness was found to be 0.00836. For the variant C82G A111U A120G A145G C150A C169A U176G, the reverse-splicing fitness came to 0.00669. For C82G A111U A120G A145G C150A C169A U176A the value was 0.0195; for C82G A111U A120G A145G C150A C169A U176C, 0.0216. For the variant C82G A111U A120G A145C C150A C169A U176A, the reverse-splicing fitness is 0.0145. Under C82G A111U A120G A145C C150A C169A U176C stands 0.00752. For C82G A111U A120G A145C C150A C169A U176G, the reverse-splicing fitness was found to be 0.00583. As to C82G A111U A120G A145G C150U C169A, the reverse-splicing fitness was 0.0121. For C82G A111U A120G A145C U176C the value was 0.0136; for C82G A111U A120G A145C U176G, 0.0065.

C82G A111U A120G A145C U176A: the reverse-splicing fitness came to 0.012. Take C82G A111U A120C C150A U176G: the reverse-splicing fitness was 0.0115.

On to C82G A111U A120C C150A U176A, for which the reverse-splicing fitness amounted to 0.0138. On to C82G A111U A120C C150A U176C, for which the reverse-splicing fitness was 0.0231. In the case of C82G A111U A120C C169U U176C, the reverse-splicing fitness is 0.0166. For C82G A111U A120C C169U U176G the value was 0.00561; for C82G A111U A120C C169U U176A, 0.0163; for C82G A111U A120C C150U C169G U176C, 0.0194. For C82G A111U A120C C150U C169G U176G the value was 0.00625; for C82G A111U A120C C150U C169G U176A, 0.0159; for C82G A111U A120G A145G, 0.0151. In the case of C82G A111U A120G A145C, the reverse-splicing fitness amounted to 0.0134. For C82G A111U A120G A145C C150U C169A the value was 0.00886; for C82G A111U A120G A145C C150U C169G, 0.00915; for C82G A111U A120G A145C C150U C169U, 0.00738. For C82G A111U A120G A145C C150U C169A U176G, the reverse-splicing fitness turned out to be 0.00544. Under C82G A111U A120G A145C C150U C169A U176C stands 0.0083; under C82G A111U A120G A145C C150U C169A U176A, 0.0138. With C82G A111U A120G A145G C150A C169G U176A, the reverse-splicing fitness was 0.0165. For C82G A111U A120G A145G C150A C169G U176G the value was 0.0053; for C82G A111U A120G A145G C150A C169G U176C, 0.025. For C82G A111U A120G A145G C150A U176C, the reverse-splicing fitness is 0.0219. Under C82G A111U A120G A145G C150A U176A stands 0.011; under C82G A111U A120G A145G C150A U176G, 0.00873; under C82G A111U A120G, 0.0168. Under C82G A111U A120C C150A C169U U176G stands 0.00816. Turning to C82G A111U A120C C150A C169U U176A, the reverse-splicing fitness was determined as 0.018. Under C82G A111U A120C C150A C169U U176C stands 0.0159; under C82G A111U A120G A145C C150U C169G U176G, 0.00518. For C82G A111U A120G A145C C150U C169G U176C the value was 0.0136. For C82G A111U A120G A145C C150U C169G U176A the value was 0.023. With C82G A111U A120G A145G C150G C169A, the reverse-splicing fitness is 0.00911.

As for C82G A111U A120G A145G C150G C169G, the reverse-splicing fitness worked out at 0.00782. As to C82G A111U A120G A145G C150G C169U, the reverse-splicing fitness is 0.00909. Under C82G A111U A120G A145G C150U C169A U176A stands 0.0158; under C82G A111U A120G A145G C150A C169U U176C, 0.0177; under C82G A111U A120G A145G C150A C169U U176G, 0.00642. Under C82G A111U A120G A145G C150A C169U U176A stands 0.0204; under C82G A111U A120C C150U C169A U176C, 0.0138; under C82G A111U A120C C150U C169A U176G, 0.00644. Under C82G A111U A120C C150U C169A U176A stands 0.0158; under C82G A111U A120G A145C C150G C169A U176C, 0.0077.

With C82G A111U A120G A145C C150G C169A U176G, the reverse-splicing fitness worked out at 0.00582. As to C82G A111U A120G A145C C150G C169A U176A, the reverse-splicing fitness came to 0.00745. Under C82G A111U A120C C150G C169U U176C stands 0.013; under C82G A111U A120C C150G C169U U176G, 0.00705; under C82G A111U A120C C150G C169U U176A, 0.00756. Under C82G A111U A120C C169A U176A stands 0.0193; under C82G A111U A120C C169A U176G, 0.00684. For C82G A111U A120C C169A U176C the value was 0.0224. Regarding C82G A111U A120C A145U U176C, the reverse-splicing fitness was determined as 0.0279.

Turning to C82G A111U A120C A145U U176A, the reverse-splicing fitness is 0.0204. For C82G A111U A120C A145U U176G the value was 0.00709. As to C82G A111U A120C C150A C169G U176C, the reverse-splicing fitness amounted to 0.0267. For C82G A111U A120C C150A C169G U176A, the reverse-splicing fitness is 0.0181. Under C82G A111U A120C C150A C169G U176G stands 0.00701.
